Measurements as given in PMC3847324, “Jun dimerization protein 2 is a critical component of the Nrf2/MafK complex regulating the response to ROS homeostasis”.

Experiments:
Test in all cases: EMSA; EMSA: 5 ug GST fusion or 10 ng IVT protein, 25 C 30 min; 5% native PAGE in 0.5x TBE at 4 C; binding buffer, salt and pH not given
[1] = target: T1, IVT-JDP2 (mouse, UniProt P97875 1-163); details: protein: ivt; chain copies: 2; label: 32P 5' end (T4 kinase) as probe; blunt
T1 sequence: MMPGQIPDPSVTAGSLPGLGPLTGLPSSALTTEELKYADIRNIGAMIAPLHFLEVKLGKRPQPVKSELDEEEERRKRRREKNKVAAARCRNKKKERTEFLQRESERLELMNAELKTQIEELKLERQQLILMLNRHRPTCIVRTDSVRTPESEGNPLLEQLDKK

[2] = target: T2, GST-JDP2 (mouse, UniProt P97875 1-163); details: protein: recombinant; tags: GST; chain copies: 2; label: 32P 5' end (T4 kinase) as probe; blunt
T2 sequence: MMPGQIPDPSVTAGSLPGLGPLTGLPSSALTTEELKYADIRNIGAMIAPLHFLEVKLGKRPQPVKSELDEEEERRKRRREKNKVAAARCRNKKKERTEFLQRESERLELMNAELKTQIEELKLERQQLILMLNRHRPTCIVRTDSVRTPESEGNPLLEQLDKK

[3] = target: IVT-MafK (rat, UniProt Q8K4B3 1-156); details: protein: ivt; chain copies: 2; label: 32P 5' end (T4 kinase) as probe; blunt
Chain of IVT-MafK (Q8K4B3 entry or part of it): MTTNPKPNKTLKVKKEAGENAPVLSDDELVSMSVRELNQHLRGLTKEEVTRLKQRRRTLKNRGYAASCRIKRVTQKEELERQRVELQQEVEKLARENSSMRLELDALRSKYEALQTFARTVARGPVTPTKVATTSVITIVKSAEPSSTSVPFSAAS

Measured: binding result

B1: human NQO1-ARE WT (dsDNA)
DNA 1: CAGTCACAGTGACTCAGCAGAATCT
DNA 2: AGATTCTGCTGAGTCACTGTGACTG
binds: all assays above
